Numbered stars: 1 amine (or outer) side, 2 acyl side, 3 side chain; on linkers, the order of the positions; unused ones are H or OH. Side chains are listed from the residue outwards. Ends that are not written are not given here. * marks the point of attachment. C20 diacid = O=C(O)CCCCCCCCCCCCCCCCCCC(=O)*; γGlu = O=C(O)[C@H](CCC(=O)[*:2])N[*:1]
T1: human calcitonin receptor (human, UniProt P30988 25-474)
T1 construct: whole, on cells; Assay VII: membranes on SPA beads; also called hCT-R; hCTR
T1 sequence (looked up): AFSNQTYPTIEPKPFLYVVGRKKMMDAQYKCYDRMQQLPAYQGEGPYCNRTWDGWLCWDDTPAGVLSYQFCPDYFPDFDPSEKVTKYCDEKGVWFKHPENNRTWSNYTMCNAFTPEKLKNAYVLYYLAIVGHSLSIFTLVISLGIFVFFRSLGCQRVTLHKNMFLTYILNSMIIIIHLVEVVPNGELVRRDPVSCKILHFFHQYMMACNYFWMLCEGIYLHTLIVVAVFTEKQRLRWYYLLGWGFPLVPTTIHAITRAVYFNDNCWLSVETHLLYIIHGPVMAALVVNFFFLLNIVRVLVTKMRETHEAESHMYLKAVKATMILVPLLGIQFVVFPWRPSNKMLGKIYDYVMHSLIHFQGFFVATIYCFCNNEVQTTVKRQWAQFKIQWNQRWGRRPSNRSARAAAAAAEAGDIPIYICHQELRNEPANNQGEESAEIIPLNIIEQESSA

T2: human amylin receptor (amylin 3(a) receptor: human calcitonin receptor with RAMP-3) (human, UniProt P30988 25-474; O60896 24-148, limits assumed)
T2 construct: whole, on cells; Assay V: membranes of the Amylin 3(a)/CRE-luc BHK cells on SPA beads; also called hAmylin-R
T2 sequence (looked up) 1: T1 sequence (looked up)
T2 sequence (looked up) 2: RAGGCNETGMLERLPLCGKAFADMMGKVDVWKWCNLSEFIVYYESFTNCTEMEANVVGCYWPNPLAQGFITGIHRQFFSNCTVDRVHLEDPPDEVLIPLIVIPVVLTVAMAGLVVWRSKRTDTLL

B1: [N-terminal(C20 diacid-gGlu), des1, 23Y, 30S, 31G, 32A]mimylin (peptide)
peptide: {C20 diacid-γGlu}-ASELSTAALGRLSAELHELATYPRTETGSGAP-NH2
SMILES: CC(C)C[C@H](NC(=O)[C@H](C)NC(=O)[C@H](C)NC(=O)[C@@H](NC(=O)[C@H](CO)NC(=O)[C@H](CC(C)C)NC(=O)[C@H](CCC(=O)O)NC(=O)[C@H](CO)NC(=O)[C@H](C)NC(=O)CC[C@H](NC(=O)CCCCCCCCCCCCCCCCCCC(=O)O)C(=O)O)[C@@H](C)O)C(=O)NCC(=O)N[C@@H](CCCNC(=N)N)C(=O)N[C@@H](CC(C)C)C(=O)N[C@@H](CO)C(=O)N[C@@H](C)C(=O)N[C@@H](CCC(=O)O)C(=O)N[C@@H](CC(C)C)C(=O)N[C@@H](Cc1c[nH]cn1)C(=O)N[C@@H](CCC(=O)O)C(=O)N[C@@H](CC(C)C)C(=O)N[C@@H](C)C(=O)N[C@H](C(=O)N[C@@H](Cc1ccc(O)cc1)C(=O)N1CCC[C@H]1C(=O)N[C@@H](CCCNC(=N)N)C(=O)N[C@H](C(=O)N[C@@H](CCC(=O)O)C(=O)N[C@H](C(=O)NCC(=O)N[C@@H](CO)C(=O)NCC(=O)N[C@@H](C)C(=O)N1CCC[C@H]1C(N)=O)[C@@H](C)O)[C@@H](C)O)[C@@H](C)O
notes: mimylin derivative; des1 = residue 1 deleted; also called Ex. #81; 81
B2: [N-terminal(C20 diacid-gGlu), des1, 23Y, 30S, 31G]mimylin (peptide)
peptide: {C20 diacid-γGlu}-ASELSTAALGRLSAELHELATYPRTETGSGSP-NH2
SMILES: CC(C)C[C@H](NC(=O)[C@H](C)NC(=O)[C@H](C)NC(=O)[C@@H](NC(=O)[C@H](CO)NC(=O)[C@H](CC(C)C)NC(=O)[C@H](CCC(=O)O)NC(=O)[C@H](CO)NC(=O)[C@H](C)NC(=O)CC[C@H](NC(=O)CCCCCCCCCCCCCCCCCCC(=O)O)C(=O)O)[C@@H](C)O)C(=O)NCC(=O)N[C@@H](CCCNC(=N)N)C(=O)N[C@@H](CC(C)C)C(=O)N[C@@H](CO)C(=O)N[C@@H](C)C(=O)N[C@@H](CCC(=O)O)C(=O)N[C@@H](CC(C)C)C(=O)N[C@@H](Cc1c[nH]cn1)C(=O)N[C@@H](CCC(=O)O)C(=O)N[C@@H](CC(C)C)C(=O)N[C@@H](C)C(=O)N[C@H](C(=O)N[C@@H](Cc1ccc(O)cc1)C(=O)N1CCC[C@H]1C(=O)N[C@@H](CCCNC(=N)N)C(=O)N[C@H](C(=O)N[C@@H](CCC(=O)O)C(=O)N[C@H](C(=O)NCC(=O)N[C@@H](CO)C(=O)NCC(=O)N[C@@H](CO)C(=O)N1CCC[C@H]1C(N)=O)[C@@H](C)O)[C@@H](C)O)[C@@H](C)O
notes: mimylin derivative; des1 = residue 1 deleted; also called Ex. #56; 56
B3: [des1, 4K(C20 diacid-gGlu), 30S, 31G]mimylin (peptide)
peptide: ASK([γGlu-C20 diacid])LSTAALGRLSAELHELATLPRTETGSGSP-NH2
modifications: N-terminus assumed
SMILES: CC(C)C[C@H](NC(=O)[C@H](C)NC(=O)[C@H](C)NC(=O)[C@@H](NC(=O)[C@H](CO)NC(=O)[C@H](CC(C)C)NC(=O)[C@H](CCCCNC(=O)CC[C@H](NC(=O)CCCCCCCCCCCCCCCCCCC(=O)O)C(=O)O)NC(=O)[C@H](CO)NC(=O)[C@H](C)N)[C@@H](C)O)C(=O)NCC(=O)N[C@@H](CCCNC(=N)N)C(=O)N[C@@H](CC(C)C)C(=O)N[C@@H](CO)C(=O)N[C@@H](C)C(=O)N[C@@H](CCC(=O)O)C(=O)N[C@@H](CC(C)C)C(=O)N[C@@H](Cc1c[nH]cn1)C(=O)N[C@@H](CCC(=O)O)C(=O)N[C@@H](CC(C)C)C(=O)N[C@@H](C)C(=O)N[C@H](C(=O)N[C@@H](CC(C)C)C(=O)N1CCC[C@H]1C(=O)N[C@@H](CCCNC(=N)N)C(=O)N[C@H](C(=O)N[C@@H](CCC(=O)O)C(=O)N[C@H](C(=O)NCC(=O)N[C@@H](CO)C(=O)NCC(=O)N[C@@H](CO)C(=O)N1CCC[C@H]1C(N)=O)[C@@H](C)O)[C@@H](C)O)[C@@H](C)O
notes: mimylin derivative; des1 = residue 1 deleted; also called Ex. #52; 52
B4: [N-terminal(acetyl), des1, 16K(C20 diacid-gGlu), 30S, 31G]mimylin (peptide)
peptide: Ac-ASELSTAALGRLSAK([γGlu-C20 diacid])LHELATLPRTETGSGSP-NH2
notes: mimylin derivative; des1 = residue 1 deleted; also called Ex. #69; 69
B5: [N-terminal(C20 diacid-gGlu), des1, 30S, 31G, 33Y]mimylin (peptide)
peptide: {C20 diacid-γGlu}-ASELSTAALGRLSAELHELATLPRTETGSGSY-NH2
SMILES: CC(C)C[C@H](NC(=O)[C@H](C)NC(=O)[C@H](C)NC(=O)[C@@H](NC(=O)[C@H](CO)NC(=O)[C@H](CC(C)C)NC(=O)[C@H](CCC(=O)O)NC(=O)[C@H](CO)NC(=O)[C@H](C)NC(=O)CC[C@H](NC(=O)CCCCCCCCCCCCCCCCCCC(=O)O)C(=O)O)[C@@H](C)O)C(=O)NCC(=O)N[C@@H](CCCNC(=N)N)C(=O)N[C@@H](CC(C)C)C(=O)N[C@@H](CO)C(=O)N[C@@H](C)C(=O)N[C@@H](CCC(=O)O)C(=O)N[C@@H](CC(C)C)C(=O)N[C@@H](Cc1c[nH]cn1)C(=O)N[C@@H](CCC(=O)O)C(=O)N[C@@H](CC(C)C)C(=O)N[C@@H](C)C(=O)N[C@H](C(=O)N[C@@H](CC(C)C)C(=O)N1CCC[C@H]1C(=O)N[C@@H](CCCNC(=N)N)C(=O)N[C@H](C(=O)N[C@@H](CCC(=O)O)C(=O)N[C@H](C(=O)NCC(=O)N[C@@H](CO)C(=O)NCC(=O)N[C@@H](CO)C(=O)N[C@@H](Cc1ccc(O)cc1)C(N)=O)[C@@H](C)O)[C@@H](C)O)[C@@H](C)O
notes: mimylin derivative; des1 = residue 1 deleted; also called Ex. #59; 59
B6: [N-terminal(acetyl), des1, 4K(C20 diacid-gGlu), 30S, 31G]mimylin (peptide)
peptide: Ac-ASK([γGlu-C20 diacid])LSTAALGRLSAELHELATLPRTETGSGSP-NH2
notes: mimylin derivative; des1 = residue 1 deleted; also called Ex. #68; 68
B7: [N-terminal(acetyl), des1, 19K(C20 diacid-gGlu), 30S, 31G]mimylin (peptide)
peptide: Ac-ASELSTAALGRLSAELHK([γGlu-C20 diacid])LATLPRTETGSGSP-NH2
notes: mimylin derivative; des1 = residue 1 deleted; also called Ex. #70; 70
B8: [N-terminal(C20 diacid-gGlu), des1, 30S, 31G, 33H]mimylin (peptide)
peptide: {C20 diacid-γGlu}-ASELSTAALGRLSAELHELATLPRTETGSGSH-NH2
SMILES: CC(C)C[C@H](NC(=O)[C@H](C)NC(=O)[C@H](C)NC(=O)[C@@H](NC(=O)[C@H](CO)NC(=O)[C@H](CC(C)C)NC(=O)[C@H](CCC(=O)O)NC(=O)[C@H](CO)NC(=O)[C@H](C)NC(=O)CC[C@H](NC(=O)CCCCCCCCCCCCCCCCCCC(=O)O)C(=O)O)[C@@H](C)O)C(=O)NCC(=O)N[C@@H](CCCNC(=N)N)C(=O)N[C@@H](CC(C)C)C(=O)N[C@@H](CO)C(=O)N[C@@H](C)C(=O)N[C@@H](CCC(=O)O)C(=O)N[C@@H](CC(C)C)C(=O)N[C@@H](Cc1c[nH]cn1)C(=O)N[C@@H](CCC(=O)O)C(=O)N[C@@H](CC(C)C)C(=O)N[C@@H](C)C(=O)N[C@H](C(=O)N[C@@H](CC(C)C)C(=O)N1CCC[C@H]1C(=O)N[C@@H](CCCNC(=N)N)C(=O)N[C@H](C(=O)N[C@@H](CCC(=O)O)C(=O)N[C@H](C(=O)NCC(=O)N[C@@H](CO)C(=O)NCC(=O)N[C@@H](CO)C(=O)N[C@@H](Cc1c[nH]cn1)C(N)=O)[C@@H](C)O)[C@@H](C)O)[C@@H](C)O
notes: mimylin derivative; des1 = residue 1 deleted; also called Ex. #60; 60

Each binder was assayed against T1, human calcitonin receptor (assay: SPA competition vs 125I-calcitonin, membranes with human CTR (Assay VII)).
Description: The binding assay was performed using scintillation proximity assay (SPA) beads (RPNQ0001) from PerkinElmer® and cell membranes prepared from a BHK tk'ts 13 cell line was stably transfected with the human calcitonin receptor and a CRE-responsive luciferase reporter gene. Membranes were prepared in the following way; the cells were rinsed with PBS and incubated with Versene for approximately 5 min before harvesting. The cells were flushed with PBS and the cell-suspension was centrifuged for 5 min at 1000 rpm.
(§1) EDTA (pH 7.4, buffer 2). The resulting pellet was resuspended in buffer 2 and protein concentration was tested (BCA protein Assay, Pierce). The homogenate was kept cold during the whole procedure. The membranes were kept at −80° C. until use. Assay was performed in a 384 well Optiplate (PerkinElmer®) in a total volume of 40 ul. Membranes were mixed with SPA beads. Final concentration of membranes 35 ng/μL final and Final concentration of SPA beads was 0.05 mg/well. Test-compounds were dissolved in DMSO and further diluted in assay buffer (50 mM Hepes, pH 7.4, 1 mM CaCl2, 5 mM MgCl2, 0.1% OA and 0.02% Tween20). […] Samples were analyzed on TopCounter™ (Packard). The IC₅₀ was calculated using (one site binding competition analysis) GraphPad Prism5 as a measure of receptor affinity.

Point of comparison: B3, IC50 0.136 nM. Against it:
- B1 — within 1.5-fold, 0.102 nM
- B2 — 1.9-fold lower, 0.07 nM
- B4 — 3-fold lower, 0.046 nM
- B5 — within 1.5-fold, 0.113 nM
- B6 — 14-fold lower, 0.01 nM
- B7 — 1.8-fold lower, 0.077 nM
- B8 — 4-fold lower, 0.034 nM

What follows are binders tested against T2, human amylin receptor (amylin 3(a) …) (assay: SPA competition vs 125I-rat amylin, membranes with human CTR + RAMP-3 (Assay V)).
Description: as §1, with “The binding assay was performed using scintillation proximity assay (SPA) beads (RPNQ0001) from PerkinElmer and cell membranes from the Amylin 3(a)/CRE-luc cells (as described in Assay (II)) were used. Membranes were prepared in the following way; the cells were rinsed with PBS and incubated with Versene for approximately 5 min before harvesting. The cells were flushed with PBS and the cell-suspension was centrifuged for 5 min at 1000 rpm. […] The” for “EDTA (pH 7.4, buffer 2). The”, “use. The assay” for “use. Assay”, “Optiplate (PerkinElmer)” for “Optiplate (PerkinElmer®)”, “and” for “and Final concentration of”

Point of comparison: B8, IC50 0.057 nM. Against it:
- B1 — 2.5-fold higher, 0.141 nM
- B2 — 6.9-fold higher, 0.394 nM
- B3 — 13-fold higher, 0.724 nM
- B4 — within 1.5-fold, 0.074 nM
- B5 — 4.3-fold higher, 0.243 nM
- B6 — within 1.5-fold, 0.05 nM
- B7 — 3.6-fold higher, 0.206 nM

Reference: patent US20160272683A1 (Novo Nordisk, published 2016)
